From article PMC12802937 come the findings set out here.

Experiment [1] concerns the target RNF-MD S5i (E766K in RNF20 and K57E/R804E in RNF40) (human) (UniProt Q5VTR2). The experiment is described as follows: SPR; RNF-MD immobilised on a CM5 chip, intein-WAC flown over; Biacore 8K, 25°C, 20 mM HEPES (pH 7.5), 200 mM sodium chloride, 0.02% Tween 20.
Experiment [2] addresses RNF-MD S4i (D780K in RNF20) (human) (UniProt Q5VTR2). The experiment is described as above.

B1: intein-CBD-tagged WAC-CT (WAC residues 570–647) (domain or fragment)
chain: HVQGWPADHAEKQASRLREEAHNMGTIHMSEICTELKNLRSLVRVCEIQATLREQRILFLRQQIKELEKLKNQNSFMV
B1: in experiment [1], the Kd was 464 nM, the koff amounted to 0.0142 s⁻¹ and the kon turned out to be 30500 M⁻¹ s⁻¹.

B2: intein-WAC S4 (R630E) (domain or fragment)
chain: HVQGWPADHAEKQASRLREEAHNMGTIHMSEICTELKNLRSLVRVCEIQATLREQRILFLEQQIKELEKLKNQNSFMV
In experiment [2], B2 yielded an equilibrium dissociation constant (Kd) of 249 nM, an off-rate constant (koff) of 0.0435 s⁻¹ and a kon of 17500 M⁻¹ s⁻¹.
